Binding data for 1 sequence are collected here from paper PMC5861037.

In series [1] the target is DosR K182Q K182Q (Mycobacterium tuberculosis H37Rv) (UniProt P9WMF9). The series can be described thus: EMSA. (In general: A gel shift assay detects complexes by their altered migration in electrophoresis.)
Series [2] concerns the target DosR K182R K182R (Mycobacterium tuberculosis H37Rv) (UniProt P9WMF9). Nature of the series: EMSA.

Turning to “TTGATGCCTCCTAATCGATGGAAACGGATGCCTTTGATCCGACCAGCCCATCGTGGCCAGGGCTAGGGACAGAAGTCCCCGAAGCGCGGGCCATTTGTCCGCGCCCGTCGGTGATCCACTTGGGGACCATTGACCCTGTTGTCTGCCA (double strand) [acr promoter fragment]”, the binding result in series [1] is on record as “binds more weakly”; in series [2], “binds”.
